Experimental data taken from the nanobody polyreactivity screen of Harvey et al. (2022).

experiment: yeast display, Sf9 membrane polyspecificity reagent, FACS + sequencing; frameworks hold sequencing errors
Procedure, shortened: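 Using colony PCR, genes from sorted yeast display clones were amplified, then sequenced on MiSeq at 2 × 250 and filtered by CDR length. The clones had been stained with 10% biotinylated, detergent-solubilized Sf9 membrane reagent for 1 hour at 4 °C and sorted by FACS into low and high (top ~1%) gates on anti-HA and streptavidin fluorescence. Polyreactivity labels come from the gate of origin.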

Row | Sequence | polyreactivity (PSR sort gate)
1 | QVQLVESGGGLDQAGSSLSLSCDSSGRIFYGYAMGWYRQEPGKERELVAAISWRGGRTYYADSVKGRFTISRDNAKNTVYLQMNRLIPEDTAVYYCNKDFPPQGKLLNMYYWGQGTQVTLSS | high polyreactivity
2 | QVQLVESGGGLDQAGVSLRLSCAASGRTFGGYAMGWYRQAPGKERELVASITSGGSTYYADSVKGRFTISRDNAKNTVYLQMNSLKPEDTAVYYCAADTYFETSTRAIPTNDYWGQGTQVTVSS | low polyreactivity
3 | QVQLVESGGGLDQARGSLRLSCAASGRIFELYAMGWYRQAPGKERELVAAITSSGGTTYYADSVKGRFTISRDNAKNTVYLQMNSLKPEDTAVYYCNTVYATRYDYWGQGTQVTVSS | high polyreactivity
4 | QVQLVESGGGLDQARGSLRLSCAASGRTFRYYAMGWYRQAPWKERELVAAISSRGTRTYYADSVKGRFTISRDNAKNTVYLQMNSLKPEDTAVYYCATRYYQELSYDYWGQGTQVIVSS | high polyreactivity
5 | QVQLVESGGGLDQARGSLRLSCAASGSTFGRYAIGWYRQAHGKERELVAAINSRGGRTYYADSVKGRFTISRDNAKNTVYLQMNSLKPEVTAVYYCAAPTGPKGYYSDRGDSWGQGTQVTLSS | low polyreactivity
6 | QVQLVESGGGLDQARGTLSLICAASGSIFRHYAMGWYRQAPWKERELVAAISGSGATTYYADSVKGRFTISRDNAKNTVYLQMKSLKPVDNAVYYCAARTTYITTWVYRHNYTYYYWGQGTQVTVSS | high polyreactivity
7 | QVQLVESGGGLDQEGGSLRLSCAASGSTFAVHVMGWYRHAPGKERELVATITYRDGRTYYADSVKGRFTISRDNANNTVYLQMNSLKPEDTAVYYCAADWYTTYDYWGQGTQVTVSS | low polyreactivity
8 | QVQLVESGGGLEQAGGSLRLSCAASGLIFRGYVMGWYRPAPGKERELVAAISRRGVNTYYADSVKGRFTISRDNSKNTVYLQMNSLKPEDTAVYYCAAETHVGWPAKFDYWGQGTQVTVSS | high polyreactivity
9 | QVQLVESGGGLEQAGGSLRLSCAASGLTFSAYVMAWYRLAPGKERELVAAISRRGGSTYYAYSVKGRFTISRDNAKNTVYLQMNSLKPEDTAVYYCAARKVAVRGYGYWGQGTQVTVSS | high polyreactivity
10 | QVQLVESGGGLFKAGGSLRLSSAASGSIFQNYDMGWYRQAPGNERELVAAISSSGDTYYADSVKGRFTISLDNAKNTVYLQMNSLKPEDTAVYYCAATYPYSLYYPYYGGDYDYWGQGTQVTVSS | low polyreactivity
11 | QVQLVESGGGLFQAGGRLRLICAASGRIFTTNAMGWYRQAPGKERELVPAISRSGGSTNYADSVKGRFTISRDNAKNTVYLQMNSLIPEDTAVYYCAAVPTCNSFRSSFYYWGQGTQVTVSS | high polyreactivity
12 | QVQLVESGGGLFQAGGSHRLSCAASGSTFYYKAMGWYRQAPGKESELVARISRSGGSTYADSVKGRFTISRDNAKNNVYLQMNSLKPEDTAVYYCNKRGFYTPSVSYDYWGQGTQVTVSS | low polyreactivity
13 | QVQLVESGGGLFQAGGSLRLICAASGRIFDVNAMGWYRQAPGKERELVAAISWSGGITYYADSVKGRFTISRDNAKNTVYLQINSLKPEDTAVYYCAADKYQGYTFYQGYPGGGGYWGQGTQVTVSS | low polyreactivity
14 | QVQLVESGGGLFQAGGSLRLNCAASGSIFGSYAMVWYIQAPGKELELVAAITSDGITNYADSVKGRFTISRDNEKNTDYLQMNSLKPEDTAVYYCAAPGPLGGSDYWGQGTQVTVSS | low polyreactivity
15 | QVQLVESGGGLFQAGGSLRLSCAANGSIFDYYAMGWYRQSPGKERELVAAITRSGVRTYYADSVKGRFTISRDNAKNTVYLQMNSMKPEDTAVYYCGAVYYPLSFDNDYWGQGTQVTVSS | high polyreactivity
16 | QVQLVESGGGLFQAGGSLRLSCAASGFIFLVNAMGWYRPAPGKERELVAAISKSTGGTYYADSVKGRFTISRDNAKNTVYLQMYSLKPEDTAVYSCAADEVYPVQRDMDYWGQGTQETVSS | low polyreactivity

Row | Sequence | polyreactivity (PSR sort gate)
17 | QVQLVESGGGLFQAGGSLRLSCAASGFTFIYYAMGSYRQAPGKATELVSAITHSGGSTYYADSVKGRFTISRDNAKTTVSLQMNSLNPEDTAVYYCAARLTWSRYQKYRTSSWQSYYWGQGTQVTVSS | high polyreactivity
18 | QVQLVESGGGLFQAGGSLRLSCAASGFTVRRYTMGWYRPATGKEREMVATISLSDGNTYYADSVKGRFTISRDNAKNTVYLQMNRLKAEDTAFYDCNAYSQSWNFYGDGDYWGQGTQVTVSS | low polyreactivity
19 | QVQLVESGGGLFQAGGSLRLSCAASGGTFNFYAMGWYRQAPGKERELVARIDSGVSTNYADTVKGRFTISRDNAKNTVYLQMNSLKPEDTAVYYCNAERYRSRRYPYRYLYYYWGQGTQVTVSS | high polyreactivity
20 | QVQLVESGGGLFQAGGSLRLSCAASGIIFRYYAMGWSRQAPGKEREFVASINFSGSSTYYADSVKGRFTISRDKAKNTVYLQMNSLKPEDTAVYYCAAGRRWLYDYWGQGTQVTVSS | high polyreactivity
21 | QVQLVESGGGLFQAGGSLRLSCAASGLIFRAYAMVWYRQSPGKERELVADITRSGGRTYYADSVKGRFTISRDNAKNTVYLQMNSLKPEDTAVYYCAAYVYSYWFYRGYEYWGQGTQVTVSS | high polyreactivity
22 | QVQLVESGGGLFQAGGSLRLSCAASGLTFYRYVMGWYRQAPGKERELVAAISDSGGSTYYADSVKGRFTISRDNAKNTVYLQMNSLKPEDTAVYYCAAEAPSFVYYSRYDYWGQGTQVTVSS | high polyreactivity
23 | QVQLVESGGGLFQAGGSLRLSCAASGRIFGGYAMGWYRQAPGTERELVAAIDWDGGSTYYADSVKGRFTISRDNEKNTVYLQMNSLKPEDTAVYYSNAVKWTWWSSSGDYDYWGQGTQVTVSS | high polyreactivity
24 | QVQLVESGGGLFQAGGSLRLSCAASGRIFQGYVMGRYRQAPGKERELVAVISRRGGITNYADSVKGRFTISSDNAKNSVYLQIYRLKPEDTAVYYCNSVTRVYNNGQYGYWGQGTQVTVSS | high polyreactivity
25 | QVQLVESGGGLFQAGGSLRLSCAASGRIFVFYTMGWYRQAPGKERELVASINSGGSTYYADSVKGRFTISRDNAKNTVYLQMNSLKPEDTAVYYCAASRTRRGVRQFDYWGQGTQVTVSS | high polyreactivity
26 | QVQLVESGGGLFQAGGSLRLSCAASGRIFYSNAMGWYRQAPGKERELVASISPNSGPTYYADSVKGRFTISRDNAKNTVYLQMNSLKPEVTAVYYCAARGGYYQDGLVTGVAEYGYCGQGTQVTVSS | low polyreactivity
27 | QVQLVESGGGLFQAGGSLRLSCAASGRISYGNAMGWYRQAPGKEMELVAAISGSGGSKYYADSVKGRFTISRDNAKNTVYLQMNSLKPEDTAVYYCAADSRKRQGYGYWGQGTQVTVSS | low polyreactivity
28 | QVQLVESGGGLFQAGGSLRLSCAASGRTFAYYTMGWYRQAPGKERELVAAITSSGGSTYYADSEKGRFTISRDNAKNTVYLQMNSLKPEDTAVYYCNAYGLRWASRLGYDYWGQGTQVTVSS | high polyreactivity
29 | QVQLVESGGGLFQAGGSLRLSCAASGRTFISNPMGWYRQAPGKVWEMVASITSGGSTNYADSVKGRFTISRDNAKNSVYVHMYSQNREDTAVYYCAAEGLVVGWTEEDYWGQGTQVTVSS | low polyreactivity
30 | QVQLVESGGGLFQAGGSLRLSCAASGRTITYYAMGWYRQAPGKERELVAAITWSGGSTYYADSVKGRFTISRDNAKNTVYLQMNSMKPEDTAVYYCAKEFYYSSGFDYWGQGTQVTVSS | low polyreactivity
31 | QVQLVESGGGLFQAGGSLRLSCAASGSIFDVNVMGWYRQAPGKERELVASINISGASTYYADSVTGRFTISRDNAKNTVYLQMNSLKPEDTAVYYCAVTYGVPSFRYGYWGQVTQVTVSS | low polyreactivity
